Measured values reported in patent publication US20100293752A1.

Key:
[1] = target: CFP from CFP-empty plasmid (pECFP); assay: FRET by acceptor photobleaching, negative control: cotransfection of CFP- and YFP-empty plasmids
[2] = target: CFP-tagged CD44 (human full length CD44s cDNA fused in frame into pECFP, expressed in MDA-MB231 cells) (human) (UniProt P16070); assay: FRET by acceptor photobleaching, confocal microscopy, MDA-MB231 cells coexpressing CFP-CD44 and YFP-OPN
[3] = target: CFP-tagged CD44 (human full length CD44s cDNA fused in frame into pECFP, expressed in MDA-MB231 cells) (human) (UniProt P16070); assay: FRET by acceptor photobleaching in MDA-MB231 cells, in the presence of blocking antibody to αvβ3 integrin
[4] = target: CFP-tagged CD44 (human full length CD44s cDNA fused in frame into pECFP, expressed in MDA-MB231 cells) (human) (UniProt P16070); assay: FRET by acceptor photobleaching in MDA-MB231 cells, in the presence of the mutated OPN-R3 RNA aptamer (control)

FRET efficiency [1] [%] | FRET efficiency [2] [%] | FRET efficiency [3] [%] | FRET efficiency [4] [%] | Substance
0.23 |  |  |  | YFP from YFP-empty plasmid (pEYFP)
 | 24.2 | 19.6 | 23.1 | YFP-tagged OPN (human OPN-a cDNA fused in frame into pEYFP, expressed in MDA-MB231 cells) (from UniProt P10451 1-314) (ligand)
